Measurements as given in paper PMC4790104 (Analytical chemistry, 2016).

Columns and labels:
Psf2-SpA = target: T1, Psf2-SpA (S. cerevisiae (endogenous in budding …, UniProt P40359 1-213)); test: native MS
T1 sequence (looked up): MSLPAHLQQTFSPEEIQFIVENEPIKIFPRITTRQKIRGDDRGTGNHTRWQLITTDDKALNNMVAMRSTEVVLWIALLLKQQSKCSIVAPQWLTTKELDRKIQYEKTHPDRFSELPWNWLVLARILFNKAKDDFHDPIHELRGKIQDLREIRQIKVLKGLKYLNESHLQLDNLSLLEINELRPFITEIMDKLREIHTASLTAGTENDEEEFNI

Nup84-HRV-SpA = Nup84-HRV-SpA (S. cerevisiae (endogenous in budding …, UniProt P52891 1-726)); test: native MS
Nup84-HRV-SpA (S. cerevisiae, sequence (P52891 whole entry): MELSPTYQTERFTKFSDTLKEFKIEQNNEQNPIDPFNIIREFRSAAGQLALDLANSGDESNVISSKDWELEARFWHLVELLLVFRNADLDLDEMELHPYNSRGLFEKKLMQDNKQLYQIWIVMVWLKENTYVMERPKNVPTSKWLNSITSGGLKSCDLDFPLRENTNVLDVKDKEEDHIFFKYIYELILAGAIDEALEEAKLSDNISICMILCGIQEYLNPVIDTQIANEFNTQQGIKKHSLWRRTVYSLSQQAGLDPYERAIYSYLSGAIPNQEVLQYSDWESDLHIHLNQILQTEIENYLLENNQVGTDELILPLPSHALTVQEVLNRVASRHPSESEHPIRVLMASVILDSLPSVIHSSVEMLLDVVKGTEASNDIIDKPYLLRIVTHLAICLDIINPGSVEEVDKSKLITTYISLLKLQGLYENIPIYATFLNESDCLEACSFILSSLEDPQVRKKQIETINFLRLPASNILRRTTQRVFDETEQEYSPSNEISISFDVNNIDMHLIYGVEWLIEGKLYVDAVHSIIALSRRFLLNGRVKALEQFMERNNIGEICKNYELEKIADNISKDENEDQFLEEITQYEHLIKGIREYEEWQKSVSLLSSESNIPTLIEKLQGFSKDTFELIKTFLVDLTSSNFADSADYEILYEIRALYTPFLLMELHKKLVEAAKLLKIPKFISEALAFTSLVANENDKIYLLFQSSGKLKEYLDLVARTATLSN

B1: Sld5 (natural protein, UniProt Q03406 1-294, looked up)
chain: MDINIDDILAELDKETTAVDSTKITQGSSSTTHRDANTIVGSSLDLNDKTQIYVSPQQDFSDLMKSWKNERCSPELLPYPHQLMKRLLNRISMQSQLIENISMGFLDMQNASNANPPMPNESKLPLLCMETELERLKFVIRSYIRCRLSKIDKFSLYLRQLNEDENSLISLTDLLSKDEIKYHDTHSLIWLKLVNDSILKYMPEELQAINDTEGSVNMIDEPDWNKFVFIHVNGPPDGKWNEDPLLQENEFGKPCYTVTIPDLKEEVELTIGSIYVMRYEVIRDLLRDDKVALI
Q: How did the “stoichiometry N” value (Psf2-SpA) turn out when B1 was run?
A: 1

B2: Nup145C (natural protein, UniProt P49687 606-1317, looked up)
chain: SIWGLVNEEDAEIDEDDLSKQEDGGEQPLRKVRTLAQSKPSDKEVILKTDGTFGTLSGKDDSIVEEKAYEPDLSDADFEGIEASPKLDVSKDWVEQLILAGSSLRSVFATSKEFDGPCQNEIDLLFSECNDEIDNAKLIMKERRFTASYTFAKFSTGSMLLTKDIVGKSGVSIKRLPTELQRKFLFDDVYLDKEIEKVTIEARKSNPYPQISESSLLFKDALDYMEKTSSDYNLWKLSSILFDPVSYPYKTDNDQVKMALLKKERHCRLTSWIVSQIGPEIEEKIRNSSNEIEQIFLYLLLNDVVRASKLAIESKNGHLSVLISYLGSNDPRIRDLAELQLQKWSTGGCSIDKNISKIYKLLSGSPFEGLFSLKELESEFSWLCLLNLTLCYGQIDEYSLESLVQSHLDKFSLPYDDPIGVIFQLYAANENTEKLYKEVRQRTNALDVQFCWYLIQTLRFNGTRVFSKETSDEATFAFAAQLEFAQLHGHSLFVSCFLNDDKAAEDTIKRLVMREITLLRASTNDHILNRLKIPSQLIFNAQALKDRYEGNYLSEVQNLLLGSSYDLAEMAIVTSLGPRLLLSNNPVQNNELKTLREILNEFPDSERDKWSVSINVFEVYLKLVLDNVETQETIDSLISGMKIFYDQYKHCREVAACCNVMSQEIVSKILEKNNPSIGDSKAKLLELPLGQPEKAYLRGEFAQDLMKCTYKI
Q: B2 was tested. Which “stoichiometry N” value (Nup84-HRV-SpA) did it give?
A: 1

B3: Sec13 (natural protein, UniProt Q04491 1-297, looked up)
chain: MVVIANAHNELIHDAVLDYYGKRLATCSSDKTIKIFEVEGETHKLIDTLTGHEGPVWRVDWAHPKFGTILASCSYDGKVLIWKEENGRWSQIAVHAVHSASVNSVQWAPHEYGPLLLVASSDGKVSVVEFKENGTTSPIIIDAHAIGVNSASWAPATIEEDGEHNGTKESRKFVTGGADNLVKIWKYNSDAQTYVLESTLEGHSDWVRDVAWSPTVLLRSYLASVSQDRTCIIWTQDNEQGPWKKTLLKEEKFPDVLWRASWSLSGNVLALSGGDNKVTLWKENLEGKWEPAGEVHQ
Q: How did the “stoichiometry N” value (Nup84-HRV-SpA) turn out when B3 was run?
A: 1

B4: Psf3 (natural protein, UniProt Q12146 1-194, looked up)
chain: MGYYDIDDVLADGTEFPCKFQYDIPGLGYLENNPGRPITKNTKLSLPLWLARILAIVGGDEALVDEEPVPFVELLPPDMFSTKVMNAIKTDPVALDLHSINSHFFSLAIKWIMLFSEKELANVVSELLLQRAQELNHHASSLSIDLNADSTGKNSANTNIATSTFLLKLEEMEKEIYKKSHESYKDTKRWMFKK
Q: With B4 as the binder, how does the “stoichiometry N” value (Psf2-SpA) read?
A: 1

B5: Psf1 (natural protein, UniProt Q12488 1-208, looked up)
chain: MYGDLGNKLVLEAKRTKQLYARSNQDVNLPMYHEDIIRNILKEVSNLRKNTEYLKEQQQLGMLDDKVAKCQYFVTLLCMERNKRCLLAYQRLRTDILDSMAWNNNGLDLMSSITFSQQDTNNLSHQEQEYLKEYCDLITDLKSGDLVDIDLSGSLVPPSDVFIDVRVLKDAGEIQTEYGVFNLIKDSQFFVRQSDVERLIQQGYLQKI
Q: For B5, which “stoichiometry N” value (Psf2-SpA) is on record?
A: 1

B6: Nup85 (natural protein, UniProt P46673 1-744, looked up)
chain: MTIDDSNRLLMDVDQFDFLDDGTAQLSNNKTDEEEQLYKRDPVSGAILVPMTVNDQPIEKNGDKMPLKFKLGPLSYQNMAFITAKDKYKLYPVRIPRLDTSKEFSAYVSGLFEIYRDLGDDRVFNVPTIGVVNSNFAKEHNATVNLAMEAILNELEVFIGRVKDQDGRVNRFYELEESLTVLNCLRTMYFILDGQDVEENRSEFIESLLNWINRSDGEPDEEYIEQVFSVKDSTAGKKVFETQYFWKLLNQLVLRGLLSQAIGCIERSDLLPYLSDTCAVSFDAVSDSIELLKQYPKDSSSTFREWKNLVLKLSQAFGSSATDISGELRDYIEDFLLVIGGNQRKILQYSRTWYESFCGFLLYYIPSLELSAEYLQMSLEANVVDITNDWEQPCVDIISGKIHSILPVMESLDSCTAAFTAMICEAKGLIENIFEGEKNSDDYSNEDNEMLEDLFSYRNGMASYMLNSFAFELCSLGDKELWPVAIGLIALSATGTRSAKKMVIAELLPHYPFVTNDDIEWMLSICVEWRLPEIAKEIYTTLGNQMLSAHNIIESIANFSRAGKYELVKSYSWLLFEASCMEGQKLDDPVLNAIVSKNSPAEDDVIIPQDILDCVVTNSMRQTLAPYAVLSQFYELRDREDWGQALRLLLLLIEFPYLPKHYLVLLVAKFLYPIFLLDDKKLMDEDSVATVIEVIETKWDDADEKSSNLYETIIEADKSLPSSMATLLKNLRKKLNFKLCQAFM
Q: Which “stoichiometry N” value (Nup84-HRV-SpA) does the source give for B6 here?
A: 1

B7: Seh1 (natural protein, UniProt P53011 1-349, looked up)
chain: MQPFDSGHDDLVHDVVYDFYGRHVATCSSDQHIKVFKLDKDTSNWELSDSWRAHDSSIVAIDWASPEYGRIIASASYDKTVKLWEEDPDQEECSGRRWNKLCTLNDSKGSLYSVKFAPAHLGLKLACLGNDGILRLYDALEPSDLRSWTLTSEMKVLSIPPANHLQSDFCLSWCPSRFSPEKLAVSALEQAIIYQRGKDGKLHVAAKLPGHKSLIRSISWAPSIGRWYQLIATGCKDGRIRIFKITEKLSPLASEESLTNSNMFDNSADVDMDAQGRSDSNTEEKAELQSNLQVELLSEHDDHNGEVWSVSWNLTGTILSSAGDDGKVRLWKATYSNEFKCMSVITAQQ
Q: B7 was tested. Which “stoichiometry N” value (Nup84-HRV-SpA) did it give?
A: 1

B8: Nup120 (natural protein, UniProt P35729 1-1037, looked up)
chain: MACLSRIDANLLQYYEKPEPNNTVDLYVSNNSNNNGLKEGDKSISTPVPQPYGSEYSNCLLLSNSEYICYHFSSRSTLLTFYPLSDAYHGKTINIHLPNASMNQRYTLTIQEVEQQLLVNVILKDGSFLTLQLPLSFLFSSANTLNGEWFHLQNPYDFTVRVPHFLFYVSPQFSVVFLEDGGLLGLKKVDGVHYEPLLFNDNSYLKSLTRFFSRSSKSDYDSVISCKLFHERYLIVLTQNCHLKIWDLTSFTLIQDYDMVSQSDSDPSHFRKVEAVGEYLSLYNNTLVTLLPLENGLFQMGTLLVDSSGILTYTFQNNIPTNLSASAIWSIVDLVLTRPLELNVEASYLNLIVLWKSGTASKLQILNVNDESFKNYEWIESVNKSLVDLQSEHDLDIVTKTGDVERGFCNLKSRYGTQIFERAQQILSENKIIMAHNEDEEYLANLETILRDVKTAFNEASSITLYGDEIILVNCFQPYNHSLYKLNTTVENWFYNMHSETDGSELFKYLRTLNGFASTLSNDVLRSISKKFLDIITGELPDSMTTVEKFTDIFKNCLENQFEITNLKILFDELNSFDIPVVLNDLINNQMKPGIFWKKDFISAIKFDGFTSIISLESLHQLLSIHYRITLQVLLTFVLFDLDTEIFGQHISTLLDLHYKQFLLLNLYRQDKCLLAEVLLKDSSEFSFGVKFFNYGQLIAYIDSLNSNVYNASITENSFFMTFFRSYIIENTSHKNIRFFLENVECPFYLRHNEVQEFMFAMTLFSCGNFDQSYEIFQLHDYPEAINDKLPTFLEDLKSENYHGDSIWKDLLCTFTVPYRHSAFYYQLSLLFDRNNSQEFALKCISKSAEYSLKEIQIEELQDFKEKQHIHYLNLLIHFRMFEEVLDVLRLGHECLSDTVRTNFLQLLLQEDIYSRDFFSTLLRLCNAHSDNGELYLRTVDIKIVDSILSQNLRSGDWECFKKLYCFRMLNKSERAAAEVLYQYILMQADLDVIRKRKCYLMVINVLSSFDSAYDQWILNGSKVVTLTDLRDELRGL
Q: How did the “stoichiometry N” value (Nup84-HRV-SpA) turn out when B8 was run?
A: 1
